Laboratory results taken from publication PMC4728371 (Genome Research, 2016).

Molecular target: the molecule itself
Experiment: SEC-MALS

B1: ZAK LZ-SAM (residues 286-410), purified (domain or fragment, human, UniProt Q9NYL2-1 286-410, looked up)
chain: EIEATLERLKKLERDLSFKEQELKERERRLKMWEQKLTEQSNTPLLPSFEIGAWTEDDVYCWVQQLVRKGDSSAEMSVYASLFKENNITGKRLLLLEEEDLKDMGIVSKGHIIHFKSAIEKLTHD
  stoichiometry N: 2
